The nanobody polyreactivity screen of Harvey et al. (2022)

Assay: yeast display, Sf9 membrane polyspecificity reagent, FACS + sequencing; frameworks hold sequencing errors
Procedure, shortened: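 Galactose induction of a Saccharomyces cerevisiae BJ5465 synthetic nanobody display library ran 36–48 hours. The cells were then stained for 1 hour at 4 °C with 10% biotinylated, detergent-solubilized Sf9 membrane reagent, pulled down on streptavidin microbeads and FACS-sorted into low and high (top ~1%) gates on expression and reagent-binding fluorescence. Labels for polyreactivity follow the gate of origin.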

Sequence	polyreactivity (PSR sort gate)
QVQLVESGGGLVQAGGSLRLSCAASGSTLPGNVMAWYRQAPGKERELVAAISKRGASTYYADSVKGRFTISRDNAKNTVYLQMNSLKPEDTAVYYCATRTRGSVFRFDYWGQGTQVTVSS	high polyreactivity
QVQLVESGGGLVQAGGSLRLSCAASGRIFKRNAKGWYRQAPGKEWELVATISGSGGSTYYADSVKGRFTISRDNAKNTVYLQMNSLKPEDTAVYYCAAVPGYPRDSLYNYWGQGSQVTVSS	high polyreactivity
QVQLVESGGGLVQAGGSLRLSCAASGRTFKFYAMGWYRQAPGKERELVATISSRGGNTFYADSVKGRFTISRDNAKNTVYLQMNSLIPEDTAVYYCAARRGVRKYPSAGYEYWGQGTQVTVSS	high polyreactivity
QVQLVESGGGLVQAGGSLRLSCAASGSIFYDYAMGWYRQAPGKEREFVAAITSSGGSTYYADSVKGRFTISRDNAKNTVYLQMNSLKPEDTAVYYCAAEDSDAYFIYGYWGQGTQVTVSS	low polyreactivity
QVQLVESGGGLVQTGGSLRLSCAASGRTFGYNAMGWYRQAPGKERELVASISYSGGSTYYADSVKGRFTISRDNAKNTVYLQMNSLKPEDTAVYYCAAKYWYWQSPSKYYYWGQGTQVTVSS	high polyreactivity
QVQLVESGGRLLQAGGSLRLSCAASGSTISHYAMGWYRQAPGKEWELVATITVTGVRTYYADSVKGRFTISRDNAKNTVYLELNSLKPEDTAVYYCAVRPSTRGAQAQPWMYYWGQGTQVTVSS	low polyreactivity
QVQLVESGAALVQAGGSLRLSCAASGFIIAVYAMGWYRQAPGKERELVAAITRSGGSTYYADSVKGRFTISRDNAKNTFYLQMNSLKPEDSAVYYCAARNTQPASYGYGYWGLGTQVTVSS	high polyreactivity
QVQLVESGGGLVQAGGSHRLSCAASGITFSTYAKGGYRQAPGKERELVAAITKSGGSTYYADSVKGRFTISRDTAKNTVYLQMNSLKPEDTAVYYCAAEGDWRGSALYNYWGLGTQVTVSS	low polyreactivity
QVQLVESGGGLVQAGGSLRLSGAASGRTFPYNTMGWYRQAPGKEWELVASITYTDGSTSYAYSVKGRFTISRDNAKNTVYLQMNCLKPEDTAVYYCAADYYAHQDYRFDYCGQGTQVTVSS	low polyreactivity
QVQLVESGGGLVQAGGSLRLSCAASGITFAKYAMGWYRQAPGKERELVAAISTSGGSTYYADSVKGRFTISRDNAKNTVYLQMNSLKPEDTAVYYCNVDTYIWYYLRYYNYWGQGTQVTVSS	high polyreactivity
QVQLVEYWGALVQAGGTLRLSCAASGRIFGTNALAWNRQAPGKERELEATITRGGGNTYYADSVKGRFTISRDKAKYTVYLQMNSLKPEDTAVYYCAAKFHRFAWYSHYDDWGQGSQVTVSS	low polyreactivity
QVQLVESGGGLVQAGGRLRLSCAASGSNFTYYAMGWYRKAPGKEREFVAAISRRGGSTYYADSVKGRFTISRDNAKNTVYLQMNSLKPEDTAVYECNARYTGSSLYYWGQGTQLTVSS	high polyreactivity
QDQLVESGGGLVQAGGSLRLSCAASGRTFVGYAMGWYRQAPGKERELVAAITSGGRTNYADSVKGRCTISRDNAKNTVYLQMTSLKPEDTAVYYCNARTRHRGQIALDYWGQGTQVTVSS	high polyreactivity
QVQHVESGGGLVQAGGSLRLSCAASGSILPFNAMGWYRQAPGKVRELVAAIDGSGGDTYYADSVKGRFTISRDNAKNTVYLQMNSLKAEDTAVYYCAAEYYYTSQLAKYHYGYEYWGQGTQETVSS	high polyreactivity
QVQLVESGGGLVQAGGSLRLSCAASGRIFTLYAMGWYRQAPGTERELVAAITYTGANTYYADSVKGRFTISRDNAKNTVYLQMNSLKPEDTAVYYCAASGYYYDYWGQGTQVTVSS	high polyreactivity
QVQLVESGGGLDQAGGSLRLTCAASGFNFSYYVMGWYRQAPGKERELVAAITKSGGSTYYADSVKGRFTIARDNAKNTVYLQMYSLKPEDTAVYFLAAVRGYRCYDYWGQGTQVTVSS	high polyreactivity
QVQLVESGGGLLQAGGSLSLSCAASGFTFIGYAMGWYRQATGKEREFVAAISWSGGRTYYADSVKGRFTISRDNAKNTVYLQMNSLKPEDTAVYYCAARGSRKPDWGLGYWGQGTQVTVSS	high polyreactivity
QVQLVESGGGLVQAGGSLRLSCAASGRTFAQYAMGWYRQAPGKERELVAGISRSGGSTYYADCVKGRFTISRDNAKNTVYLQMNSLKPEDTAVYYCAARWRGARWYYYWGQGTQVTVSS	high polyreactivity
QVQLVESGGGLVQAGGSLRLSCAASGSIFVTNAMGWYRQAPGKERELVAAISVSGGSTYYADSVKGRFTISRDNAKNTVYLQMNSLKPEDTGVYYCAADGYIGWRHIYEYWGQGTQVTVSS	low polyreactivity
QVQLVESGGGLVQAGGSLRLSCAASGFNFSLNAMGWYRQAPGKERELVAAISRSGGRTYYADSVKGRFTISRDNAKNTVYLQMNSLKPEDTAVYYCAAVPITWYAYDYWGQGTQVTVSS	high polyreactivity
QVQLVESVGGLVQAGGSLRLSCAASGSIFDSYAMGWYRQAPGKERELVADISSGGSTYYADSVKGRFTISRDNAKNTVYLQMNSLKPEDTAVYYCAAQYVYYFYGDEAFTDDYWGQGTQVTVSS	low polyreactivity
QVQLQESGGGLVQAGGNLRLSCAASGYISRWYGMGWYRQAPGKERELVAGMSPGGSTYYADSVKGRITISRDNAKNTVYLQMNSLKPEDTAVYYCAAQDFQDSIYFYWGQGTQVTVSS	high polyreactivity

Sequence	polyreactivity (PSR sort gate)
QVQLVESGGGLVQAGGSLRLSCAASGSTFWPYAMGWCRQAPGKERELVAAITWSGGRTYYADSVKGRFTISRDNAKNTVYLQMYSLKPEDTAVYYCAAYYRQGIAPNGFDYWGQGTQVTVSS	high polyreactivity
PVQLVESGGGLGQAGGSLRLSCAASGRIFYLYAMGWYRQAPGKERELVATIDSSGDSTFYADSVKGRFTISRDNAKNTVYLQMNSLKPEDTAVYNCAADEVSSYDYGYKGRYDYWGQGTQVTVSS	low polyreactivity
QVQLVESGGGLVQAGGSLRLSCAASGSIFYGYTMGWYRQEPGKERELVAAIRKSGGSTNYADSVKGRFTISRDNAKNTVFLQMNSLKPEDTAVYYCAAAYYRGRGYYWGQGTQVTVSS	high polyreactivity
QVQLVESGGGLVQAGGSLRLSCAASGSTFGYYAMGWYRQAPGKEMELVAAITSGASTNYADSVKGRFTISRDNAKNTVYLQMNSLKPEDTAVYYCAADFLSPAYRPSWYRFDYWGQGTQVTVSS	low polyreactivity
QVQLVESGGGLVQAGGSLRLSCAASGSTFYAYTMGWYRQAPGKERELVAAITGRGGRTYYADSVKGRFTISRDNAKNTVYLQMNSLKPEDTAVYYCAAVYRKYPYSDYDYWGQGTQVTVSS	high polyreactivity
QVQLVESGGGLVQAGGSLRLICAASGLTFYVYAMGWYRQAPGKERELVAAISQRGGSTYYADSVKGRFKISRDNAKNTVYLQMNSLNPEDTAVYYCAKYTVQYAISHYDYWGQGTQVTVSS	high polyreactivity
QVQLVESGGGLVQAGGSLRLSCGASGYIFGYYAMGWYRQAPRKERDLVAAISSSGGSTYYADSVKGRFTISRDHAKNTVYLQMNSLKPEDTAVYYCAAYRWGTHDRLDYWGQGTQVTVSS	high polyreactivity
QVQLVESGGCLVQAGGSLSLSCAASGFTFSWNAMGWYRQAPGKERELVATITRSGSTYYADSVKGRFTISRDNAKNTVYLLMNSLKPEDTAVYYCAVVSWYRYSRYENDYWGQGTQVTVSS	high polyreactivity
QVQLVESGGGLVQAGGRSCAASGSTFRPYAMGWYRQAPGKEREFVAAISWRGGRTYYADSVKGRFTISRDNAKNTVYLQMNSLKPEDTAVYYCAVDPSIYRLSAYYYDYWGQGTQVTVSS	low polyreactivity
QVQLVESGGGLVQAGGSLRLSCAASGSIFDFSAMGWYRQAPGKERELVAAISGSGGSTYYADSVKGRFTISRDNAKNTVYLQMNSLKPEDTAVYYCSYYYWGQGTQVTVSS	low polyreactivity
QGQLVESGGGLVQAGGSLRLSCAGSGRTFSSNAMGWYRQGRGKVRELVASISFRGGRTYYADSVKGRFTISRHNAKKTVYLQMNSLKPEDTAVYYCVSRTKRTGYGYWGQGTQVTVSS	high polyreactivity
QVQLVESGGGLVQAGGSLRLSCAASGRISYANSMGWYRQAPGKESELVASITYSAGSTYADSVKGRFTISRDNAKNTVYLQMNSLKPEDTAVYYCAKRPSQHYRSYLMDYWGQGTQVTVSS	low polyreactivity
QVHLVESGGGLVQAGGSLRLSCAASGFTFRRNAMGWYRQAPGKERELVAAITRSGGVTYYADSVKGRFTISRDNAKNTVYLQMNSMKPEDTAVYYCATQARLYGGYDRYAGSYDYWGQGTQVTVSS	high polyreactivity
QVQLVESGGGLVQAGGSLRLSCAASGPTFPFNAMVWYRQAPGKERELVAAISWRDGRTYYADSVKGRFTISRDNAKNTVYLQMNSLKPEDTAVYYCNVVKRRSDWGMVYWGQGTQVTVSS	high polyreactivity
QVQLVESGGGIVQAGGSLRLSCDASGRIIGYYAMGWYRQAPGKERELVAAISRSGARTYYADSVKGRFTISRDNAKNTVYLQMNSLKPEDTAVYYCAAGPAPGHDSWGQGTQVTVSS	high polyreactivity
QVQLVESGGGLVQAGGSLRLSCAASGSIFTLYAMGWYRQAPGKERELVAAITRSGGSTYYADSVKGRFTISRDNAKNTVYLQMNSLKPEDTAVYYCAADKAPYSTEGDYWGQGTQVTVSS	high polyreactivity
QVQLVESGGGLVQAGGSLRLSCAASGRIFASKAMGWYRQAPGKERELVAAITTTGGSTYYADSVKGRFTISRDNAKNTVYLQMNSLKPEDTAVYYCASRAIPRVRRYGSMNYWGQGTQVTVSS	high polyreactivity
QVQLVESGGGLVQAGGSLRLRCAASGRIFPLYAMGWYRQAPGKERELVATISYSGSSTYYADSVKGRFTISRDYAKNSVYLQMNSLKPEDTAVFYFNADAFGPPGVEYYYRGQGTQVTVSS	low polyreactivity
QVQLVESGGGLVQAGGSLRLICAASGRTFEDNAMGWYRQAPGKERELVAAISSDGSRNYADSVKGRFTISRDNAKNTVYLQMNSLKPEDTAVYYCNATVYWPYDWGTSDYWGQGTQVTVSS	low polyreactivity
QDQLVETGGGLVQAGGSLRLSCAASGIIFYPNAMGWYRQAPGKERELVAAISWRSGSTYYADSVKGRFTISRDNAKNTVYLQMNSLKPEDTAVYYCAADRRRSYIWRYDYWGQGTQVTVSS	low polyreactivity
QVQLVESGGGLVQAGGSLRLSCAASGSLLADNAMGWSRQAPGKERELVAAISRRGGRTYYADSVKGRFTISRDNAKNTVYLQMNSLKPEDTAVYYCAAVGSFHIVDYWGQGTQVTVSS	high polyreactivity
